Consider ten molecules from patent US20140079716A1 (Biogen, published 2014).

Assay [1] addresses T1, soluble recombinant human lymphotoxin α1β2 (human, UniProt P01374 35-205, limits assumed).
T1 sequence 1: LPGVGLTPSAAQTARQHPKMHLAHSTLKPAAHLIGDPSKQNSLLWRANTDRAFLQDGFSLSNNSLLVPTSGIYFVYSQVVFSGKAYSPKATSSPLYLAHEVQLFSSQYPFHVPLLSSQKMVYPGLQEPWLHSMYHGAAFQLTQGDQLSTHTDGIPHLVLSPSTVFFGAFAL
T1 sequence 2: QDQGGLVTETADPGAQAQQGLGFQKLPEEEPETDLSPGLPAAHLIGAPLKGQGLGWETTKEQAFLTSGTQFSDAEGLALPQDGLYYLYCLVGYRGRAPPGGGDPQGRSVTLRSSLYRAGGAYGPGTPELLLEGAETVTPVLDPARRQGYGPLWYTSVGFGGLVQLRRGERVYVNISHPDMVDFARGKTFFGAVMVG
As to the kind of experiment: cell-based or functional assay.

Assay [2] concerns the target T2, LTα3 (soluble homotrimer) (UniProt P01374 35-205).
T2 construct: Coated on ELISA plates at 1 or 5 ug/ml; also called LTa3
T2 sequence (looked up): T1 sequence 1
As to the kind of experiment: ELISA on plate-coated LTα3 (1 or 5 ug/ml). How it is done: For the LTa3 ELISA, microtiter plates were coated with LTα3 (1 or 5 ug/ml in PBS) then nonspecific binding sites were blocked with a 1% casein buffer. Samples (antibodies, receptor-Ig) were added and binding detected with HRP-conjugated anti-murine Ig antibodies. For assessment of ability of mAbs to block interaction between LTα3 and TNFR-hIg (p55), plates were coated with LTα3 and blocked as described above. Serial dilutions of antibodies were added to plate 30 minutes prior to TNFR-Ig addition. Binding of TNFR-hIg to plate-bound LTα3 was detected with an HPR conjugated anti-human Ig antibody.

Assay [3] deals with T3, LTα1β2 on the surface of PMA-treated II-23 cells (UniProt P01374 35-205, limits assumed).
T3 construct: whole, on cells; also called surface LT
T3 sequence 1: T1 sequence 1
T3 sequence 2: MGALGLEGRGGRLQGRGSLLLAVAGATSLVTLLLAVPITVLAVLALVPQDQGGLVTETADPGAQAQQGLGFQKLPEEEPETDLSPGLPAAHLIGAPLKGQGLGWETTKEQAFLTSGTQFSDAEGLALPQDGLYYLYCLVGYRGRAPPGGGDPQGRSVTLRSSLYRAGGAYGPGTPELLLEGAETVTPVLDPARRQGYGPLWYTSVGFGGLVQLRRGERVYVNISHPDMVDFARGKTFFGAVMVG
As to the kind of experiment: competition FACS (II-23 assay): PMA-treated II-23 cells, varied antibody, then biotin-LTβR-Ig at 1 ug/ml, streptavidin-PE; MFI of bound LTβR-Ig. On the procedure:
(§1) II-23 cells were incubated with 50 ng/ml PMA for 4 hours at 37° C. 5% CO2. The cells were washed and 500,000 cells were added to each well of a 96-well plate. The antibody was diluted to the appropriate concentrations and added to the II-23 cells. After a 30 minute incubation period at 4° C., the biotin labeled LTβR-Ig is added to each well for a final concentration of 1 ug/ml. The cells are incubated at 4° C. for an additional 30 minutes, and then washed 3 times. Streptavidin-PE was diluted to 1/500 and added to each well and incubated for 1 hour at 4° C. The cells were washed once and read by FACS analysis. The mean fluorescence intensity is plotted versus antibody concentrations, and an IC50 is determined from a 4-parameter curve fit of the data.

Assay [4] has as its target T3, LTα1β2 on the surface of PMA-treated …. In words: FACS, inhibition of biotin-LTβR-Ig binding to PMA-treated II-23 cells. How it is done: as §1
A general note: In flow cytometry, cells or beads pass a laser one at a time.

For assay [5] the target is unchanged. In words: FACS, inhibition of biotin-LTβR-Ig (1 ug/ml) binding to PMA-treated II-23 cells. How it is done:
as §1

The target is the same in assay [6]. In words: competition FACS (II-23 assay): PMA-treated II-23 cells, varied competitor, then biotin-LTβR-Ig at 1 ug/ml, streptavidin-PE; MFI of bound LTβR-Ig. How it is done: as §1
The target is the same in assay [7]. As to the kind of experiment: competition FACS (II-23 assay, as in FIG. 4): LT-expressing cells, varied competitor, labelled LTβR-Ig; MFI of bound LTβR-Ig. How it is done: as §1
Assay [8] shares this target. As to the kind of experiment: competition FACS (II-23 assay, as in FIG. 4): LT-expressing cells, varied antibody, labelled LTβR-Ig; MFI of bound LTβR-Ig. On the procedure: as §1
The target in assay [9] is T4, human LT (human, UniProt P01374 35-205, limits assumed).
T4 construct: also called human LTα1β2
T4 sequence 1: T1 sequence 1
T4 sequence 2: T3 sequence 2
In words: reagent description; assay not stated.

Where a chain is given by its changes, count along the chain named. Several values for one entry are separate records, joined by “and”; a condition that tells them apart may be missing. Equal values may be shown once.

B1: 9B4 (antibody, V domains shown)
VH: QVTLKESGPGILQPSQTLSLTCSFSGFSLSTSGMGVSWIRQPSGKGLEWLAHIYWDDDKRYNPSLRSRLTISKDTSRNQVFLKITSVDTADTATYYCARREGYYGSSFDFDVWGAGTTVTVSS
VL: QIVLSQSPAILSASPGEKVTMTCRASSSVSYMIWYQQKPGSSPKPWIYATSSLASGVPTRFSGSGSGTSYSLTISRVEAADAATYYCQQWSYNPLTFGAGTKLELK
notes: Murine monoclonal antibody, kappa light chain; also called LT 9B4; LT9B4
Turning to B1, in [1], the “IC50 nM, inhibition of IL-8 release” value stood at 0.6 nM and the “Maximum % Inhibition of IL-8 release” value turned out to be 95%. The binding result in [2] is listed as “no binding”. Also, the “IC50 (read off the curve)” value in assay [3] was about 0.9 nM. The “potency in an II-23 assay (% blockade)” value in assay [4] was over 90%. In assay [5], the “Maximum % Inhibition” value amounted to 99%.

B2: LTβR-Ig (Fc fusion, UniProt P36941 31-227, looked up)
chain: QAVPPYASENQTCRDQEKEYYEPQHRICCSRCPPGTYVSAKCSRIRDTVCATCAENSYNEHWNYLTICQLCRPCDPVMGLEEIAPCTSKRKTQCRCQPGMFCAAWALECTHCELLSDCPPGTEAELKDEVGKGNNHCVPCKAGHFQNTSSPSARCQPHTRCENQGLVEAAPGTAQSDTTCKNPLEPLPPEMSGTMLM
modifications: biotin label in the II-23 assay (sites not given)
notes: also called LTBR-Ig; LTbR-Ig; not shown: Ig (Fc) part
In the case of B2, the “IC50 (read off the curve)” value in assay [6] was about 0.8 nM; in assay [7] it was about 0.03 µg/mL.

B3: A0D9 (antibody, V domains shown)
VH: QVQLKQSGPGLVQPSQSLSITCTVSGFSLSTYGVHWVRQFPGKGLEWLGVIWRGGNTNYNAAFMSRLTISKDNSKSQVFFKMNSLQAKDTAIYYCVRNQIYDGYYDYAMDYWGQGTSVTVSS
VL: DIKMTQSPSSMYASLGERVTITCKASQDINTYLNWLQQKPGKSPKTLIYRANRLVDGVPSRFSGRGSGQDYSLTISSLEYEDVGIYYCLHYDAFPWTFGGGTKLEIK
notes: Murine monoclonal antibody, kappa light chain; also called mAb A0D9; AOD9
On to B3, for which, in [1], the “IC50 nM, inhibition of IL-8 release” value turned out to be 1.67 nM and the “Maximum % Inhibition of IL-8 release” value turned out to be 94%. Also, in [2], the binding result is reported as “no binding”. Moreover, the “potency in an II-23 assay (% blockade)” value in assay [4] is over 90%. Moreover, the “IC50 (read off the curve)” value in assay [8] was about 0.2 µg/mL. In addition, the “Maximum % Inhibition” value in assay [5] amounted to 92%.

B4: LT101 (P1G4.4) / LT103 (P1G9.1) (antibody, V domains shown)
VH: QVQLQQSGPELVKPGASVQISCKASGYVFSSSWMNWVKQRPGRGLEWIGRIYPGDGDTDYTGKFKGKATLTADKSSNTAYMQLSSLTSVDSAVYFCASGYFDFWGQGTPLTVSS
VL: DITMTQSPSSMYASLGERVTITCKASQDMNNYLRWFQQKPGKSPQTLIFRANRLVDGVPSRFSGSGSGQDYSLTISSLEFEDMGIYYCLQHDKFPPTFGGGTKLEIK
notes: Murine monoclonal antibody, kappa light chain; also called LT101/LT103
As to B4, in [1], the “IC50 nM, inhibition of IL-8 release” value came out at 1.11 nM and the “Maximum % Inhibition of IL-8 release” value amounted to 90%. Further, in assay [8], the “IC50 (read off the curve)” value was about 0.04 µg/mL. In assay [5], the “Maximum % Inhibition” value amounted to 77%.

B5: Murine LTBR-mIgG1 (Fc fusion, UniProt P50284 31-223, looked up)
chain: QLVPPYRIENQTCWDQDKEYYEPMHDVCCSRCPPGEFVFAVCSRSQDTVCKTCPHNSYNEHWNHLSTCQLCRPCDIVLGFEEVAPCTSDRKAECRCQPGMSCVYLDNECVHCEEERLVLCQPGTEAEVTDEIMDTDVNCVPCKPGHFQNTSSPRARCQPHTRCEIQGLVEAAPGTSYSDTICKNPPEPGAMLL
notes: also called mLTBR-mIgG1; mLTβR-mIg; not shown: murine IgG1 part
In the case of B5, the “fold lower affinity than for murine LT” value in assay [9] is about 2 fold.

B6: A1D5 (antibody, V domains shown)
VH: EVQLQQSGPELVKPGASVKISCKASGYSFTGYFMNWMRQSHGKSLEWIGRINPYNGDSFYNQKFKDKATLTVDKSSTTAHMELLSLTSEDSAVYYCGRGYDAMDYWGQGTSVTVSS
VL: DIQMTQTTSSLSASLGDRVTISCRASQDISNFLTWYQQKPDGTVKLLIYYTSKLHSGVPSRFSGSGSGTDYSLTISNLEPGDIATYYCQQVSKFPWTFGGGAKLEIK
notes: Murine monoclonal antibody, kappa light chain; also called mAb A1D5
With B6, in assay [1], the “IC50 nM, inhibition of IL-8 release” value was 2.5 nM and the “Maximum % Inhibition of IL-8 release” value came out at 94%. Also, the binding result in [2] is recorded as “no binding”. Further, in assay [4], the “potency in an II-23 assay (% blockade)” value was over 90%. Also, in [8], the “IC50 (read off the curve)” value is about 0.6 µg/mL. Besides, the “Maximum % Inhibition” value in assay [5] is 92%.

B7: LT105 (P2E9.7) (antibody, IgG1, V domains shown)
VH: DVQLQESGPGLVKPSQSLSLTCSVTGYSITSGYYWNWIRQFPGNKLEGMGYISYDGSNNYNPSLKNRISITRDSSKNQFFLKLNSVTAEDSGTYYCARDAYSYGMDYWGQGTSVTVSS
VL: DIVLTQSPASLAVSLGQRATISCRASESVDNYGISFMHWYQQKPGQPPKLLIYRASNLESGIPARFSGSGSRTDFTLTINPVETDDVATFYCQQSNKDPYTFGGGTKLEIK
notes: The humanized versions were tested only for solubility; also called mAb LT105
With B7, the “IC50 nM, inhibition of IL-8 release” value in [1] was 1.06 nM and 0.52 nM. Further, the “Maximum % Inhibition of IL-8 release” value in [1] amounted to 100%. For the same molecule, the binding result in [2] is on record as “no binding”. The figures for the “IC50 (read off the curve)” value in [3] and in assay [8] were about 1 nM and about 0.06 µg/mL, respectively. In assay [4], the “potency in an II-23 assay (% blockade)” value was over 90%. The “Maximum % Inhibition” value in [5] amounted to 97%.

B8: LT102 (P1G8.2) (antibody, IgG1, V domains shown)
VH: EVKLVESGGGLVKPGGSLKLSCAVSGFTFSDYYMYWIRQTPEKRLEWVATIGDGTSYTHYPDSVQGRFTISRDYATNNLYLQMTSLRSEDTALYYCARDLGTGPFAYWGQGTLVTVSA
VL: DVLMTQTPRSLPVSLGDQASISCRSSQNIVHSNGNTYLEWYLQKPGQSPKLLIYKVSNRFSGVPDRFSGSGSGTDFTLKISRVEAEDLGVYYCFQGSHFPWTFGGGTKLEIK
notes: also called mAb LT102; LT012
Regarding B8, in assay [1], the “IC50 nM, inhibition of IL-8 release” value was 0.406 nM and 0.991 nM; the “Maximum % Inhibition of IL-8 release” value is 92%. The binding result in assay [2] is “no binding”. Moreover, in assay [3], the “IC50 (read off the curve)” value is about 3 nM. Further, the “potency in an II-23 assay (% blockade)” value in [4] was over 90%. In addition, in assay [8], the “IC50 (read off the curve)” value is about 0.4 µg/mL. Further, in [5], the “Maximum % Inhibition” value is 98%.

B9: LT107 (P5C4.1) (antibody, V domains shown)
VH: QVQLKQSGPGLVQPSQNLSITCTVSGFSLTNYGIHWIRQPPGKGLEWLGVIWSGGSTDHNAAFISRLSISKDNSKSQVFFTMNSLEVDDTAIYYCARNRAYYRYEGGMDYWGQGTSVTVSS
VL: DIKMTQSPSSMYASLGERVTITCKASQDINTYLNWFQQKPGKSPMTLIYRADRLLDGVPSRFSGSGSGQDYSLTISSLEDEDMGIYYCQQYDDFPLTFGAGTKLELK
notes: Murine monoclonal antibody, kappa light chain; also called mAb LT107
Regarding B9, in assay [1], the “IC50 nM, inhibition of IL-8 release” value is 0.53 nM and the “Maximum % Inhibition of IL-8 release” value was 95%. In assay [2], the binding result is reported as “no binding”. Also, the “IC50 (read off the curve)” value in assay [8] was about 0.03 µg/mL. In assay [5], the “Maximum % Inhibition” value turned out to be 80%.

B10: LT108 (P4F2.2) (antibody, V domains shown)
VH: B9 VH with N17S, N31D, A62V, I64T, S68N, T81K, V87P, I92M
VL: B9 VL
notes: also called mAb LT108
On to B10, for which the “IC50 nM, inhibition of IL-8 release” value in [1] turned out to be 1.3 nM. The binding result in assay [2] is listed as “no binding”.
